Laboratory results published in US20240109974A1 (SHANDONG SIMCERE BIOPHARMACEUTICAL, published 2024).
Numbering of substitutions follows the chain as printed. Each block holds one binder with its values, some of them ahead of it.

Tests used:
[1] = target: T1, human TNFR2 on the surface of CHO-TNFR2 cells (human, UniProt P20333 23-461); experiment: flow cytometry on CHO-TNFR2 cells; EC50, reference itself
T1 construct: whole, on cells
T1 sequence (looked up): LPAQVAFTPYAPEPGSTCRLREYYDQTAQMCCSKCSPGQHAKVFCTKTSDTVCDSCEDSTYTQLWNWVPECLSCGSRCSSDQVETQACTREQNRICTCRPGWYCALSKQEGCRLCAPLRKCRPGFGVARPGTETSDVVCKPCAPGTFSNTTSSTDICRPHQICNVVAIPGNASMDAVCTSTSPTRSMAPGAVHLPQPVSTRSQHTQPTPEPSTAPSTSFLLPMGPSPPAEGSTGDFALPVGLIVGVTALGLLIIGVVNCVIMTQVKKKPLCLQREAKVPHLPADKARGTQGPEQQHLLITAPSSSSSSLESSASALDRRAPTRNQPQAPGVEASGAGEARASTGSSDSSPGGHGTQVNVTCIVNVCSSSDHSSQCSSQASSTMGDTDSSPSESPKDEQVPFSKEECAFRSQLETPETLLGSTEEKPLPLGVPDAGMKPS
Protocol: The transfected full-length plasmid of human TNFR2 was purchased from Sino Biological (Cat #HG10417-UT, NCBI Ref Seq: NM_001066.2). The experiment was conducted at a cell density within 80%. The cell medium was discarded; the cells were rinsed with PBS, and digested with 1 ml trypsin for 2 minutes; the digestion was stopped with a Ham's F12 complete medium containing 10% FBS, and then a cell suspension was made. The cell suspension was counted, and then an appropriate amount of cell suspension was centrifuged at 350×g; the supernatant was discarded; a corresponding volume of blocking solution (10% FBS+PBS) at a density of 1×10⁷ cells/ml was added to resuspend the cells, and the mixture was incubated at 4° C. for 30 minutes. After the incubation, the mixture was centrifuged at 350×g to remove the supernatant, and the cells were resuspended in a staining buffer (2% FBS+PBS) to a density of 2×10⁶ cells/ml, and spread onto a 96-well plate, with 50 μl of cell suspension added to each well for later use. The antibody was diluted with PBS for 10-fold gradient dilution from the highest concentration of 20 μg/m (twice the concentration); the diluted antibody was added to the well containing 50 μl of cell suspension, and placed on a microplate shaker for shaking at 500 rpm for 1 minute, so that the antibody was fully mixed with the cells; the mixture was incubated at 4° C. for 1 h. After the incubation, the cells were washed twice with the staining buffer, with 100 μl per well, and centrifuged at 350-g for 5 minutes, and the supernatant was discarded. […] After the staining, similarly, the cells were washed twice with the staining buffer; finally, the cells were resuspended in 200 μl of staining buffer; signals were detected by a flow cytometer (Thermo Attune NxT). […] The binding curve of an antibody was drawn with antibody concentration as the abscissa and corresponding mean fluorescence intensity (MFI) fold as the ordinate, and fitted with four parameters (GraphPad Prism9) to calculate the EC50 value.

[2] = target: T2, Human TNFR2-His (Sino 10417-H08H) (human, UniProt P20333 23-257); experiment: ELISA, human TNFR2-His coated; EC50 against 219-WT
T2 construct: Bought protein; also called recombinant human TNFR2 protein; not shown: His tag
T2 sequence (looked up): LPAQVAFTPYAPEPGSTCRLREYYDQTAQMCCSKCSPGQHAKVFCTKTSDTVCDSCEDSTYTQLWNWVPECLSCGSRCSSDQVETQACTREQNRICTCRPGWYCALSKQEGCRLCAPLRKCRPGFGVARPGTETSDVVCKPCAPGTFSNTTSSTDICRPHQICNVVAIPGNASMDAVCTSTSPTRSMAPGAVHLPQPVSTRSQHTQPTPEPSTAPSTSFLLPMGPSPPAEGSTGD
Protocol: (§1) The test humanized antibody against TNFR2 (as described in Example 1, the antibody was comprised of variable regions linked to IgG-Fc; the WT chimeric antibody also adopted the IgG-Fc structure) was subjected to 3.33-fold gradient dilution, loaded with 100 μl/well, and incubated with shaking at room temperature for 1.5 hours. The plate was washed, and then a working solution of murine anti-human IgG Fc-HRP (diluted at 1:10000) was added, loaded with 100 μl/well, and incubated with shaking at room temperature for 1.0 hour. The plate was washed again, and then the substrate TMB of HRP was added to develop colour. A stop solution was added to stop the reaction, and then a microplate reader (MD 13) was used to read the absorbance value. The binding curve of an antibody was drawn with antibody concentration as the abscissa and corresponding OD value as the ordinate, and fitted with four parameters (GraphPad Prism9) to calculate the EC50 value. The smaller the EC50 value, the stronger the binding ability of an antibody to human/cynomolgus monkey TNFR2. The binding effect of a humanized antibody was normalized to its corresponding human-murine chimeric antibody WT (see SEQ ID NOs: 38-43 for the sequence). The higher the percentage value, the better the binding effect of the humanized antibody. The results of binding of an anti-TNFR2 antibody to a human TNFR2 protein are shown in FIG. 1 and Table 4, and the results of binding of an anti-TNFR2 antibody to cynomolgus monkey TNFR2 are shown in FIG. 2 and Table 4.

[3] = target: T1, human TNFR2 on the surface of CHO-TNFR2 …; experiment: flow cytometry on CHO-TNFR2 cells; AUC against 219-WT
Protocol: (§2) The transfected full-length plasmid of human TNFR2 was purchased from Sino Biological (Cat #HG10417-UT, NCBI Ref Seq: NM_001066.2). The experiment was conducted at a cell density within 80%. The cell medium was discarded; the cells were rinsed with PBS, and digested with 1 ml trypsin for 2 minutes; the digestion was stopped with a Ham's F12 complete medium containing 10% FBS, and then a cell suspension was made. The cell suspension was counted, and then an appropriate amount of cell suspension was centrifuged at 350×g; the supernatant was discarded; a corresponding volume of blocking solution (10% FBS+PBS) at a density of 1×10⁷ cells/ml was added to resuspend the cells, and the mixture was incubated at 4° C. for 30 minutes. After the incubation, the mixture was centrifuged at 350×g to remove the supernatant, and the cells were resuspended in a staining buffer (2% FBS+PBS) to a density of 2×10⁶ cells/ml, and spread onto a 96-well plate, with 50 μl of cell suspension added to each well for later use. The antibody was diluted with PBS for 10-fold gradient dilution from the highest concentration of 20 μg/m (twice the concentration); the diluted antibody was added to the well containing 50 μl of cell suspension, and placed on a microplate shaker for shaking at 500 rpm for 1 minute, so that the antibody was fully mixed with the cells; the mixture was incubated at 4° C. for 1 h. After the incubation, the cells were washed twice with the staining buffer, with 100 μl per well, and centrifuged at 350-g for 5 minutes, and the supernatant was discarded. The PE goat anti-Human IgG Fc antibody (ebioscience, Cat #12-4998-82) was diluted 250-fold with the staining buffer, with a volume of 100 μl per well added to the washed cell wells; the mixture was mixed evenly, and stained at 4° C. for 30 minutes. After the staining, similarly, the cells were washed twice with the staining buffer; finally, the cells were resuspended in 200 μl of staining buffer; signals were detected by a flow cytometer (Thermo Attune NxT). The stronger the signal, the stronger the binding ability of an antibody to TNFR2. The binding curve of an antibody was drawn with antibody concentration as the abscissa and corresponding mean fluorescence intensity (MFI) fold as the ordinate, and fitted with four parameters (GraphPad Prism9) to calculate the EC50 value.

[4] = target: T1, human TNFR2 on the surface of CHO-TNFR2 …; experiment: flow cytometry on CHO-TNFR2 cells; EC50 against 219-WT
Protocol: as §2

[5] = target: T3, Cynomolgus TNFR2-His (Sino 90102-C08H) (cynomolgus monkey, UniProt A0A2K5VET2 132-366); experiment: ELISA, cynomolgus TNFR2-His coated; EC50 against 219-WT
T3 construct: Bought protein; also called cynomolgus monkey TNFR2; recombinant cynomolgus monkey TNFR2 protein; not shown: His tag
T3 sequence: T2 sequence (looked up) with S16G, S36P, P117Q, N164H, E210A, S216G, M223V
Protocol: as §1

B1: 224-WT (antibody, V domains shown)
VH: EVQLQESGPEIVKPGASVKLSCTASGFNNKDIYMHWVKQRPEQGLEWIGRIDPATGNTKHDPKFQDKATLSSDTSSNTAYLQFSSLTSEDTAVYYCAHSPYGDFGAMDYWGQGTTVTVSS
VL: DIQMTQSPAIMSASLGERVTMTCTASSSVSSNYLHWYQQKPGSSPKLWIYSTSNLPSGVPARFSGSGSGTSYSLTISSMEAEDAATYYCHQYHRSPWTFGGGTKLEIK
notes: Human-murine chimeric wild-type molecule; also called human-murine chimeric antibody WT of #224
- % Relative activity (WT antibody/test antibody) [1]: 100%

B3: 219-Hu3 (antibody, V domains shown)
VH: QVQLVQSGAEVKKPGSSVKVSCKASGYSFTNYWMNWVRQAPGQGLEWMGMIHPSDTETRLNQNFKDRVTITADKSTSTAYMELSSLRSEDTAVYYCARGEGLGAARSVSMDYWGQGTLVTVSS
VL: DIQMTQSPSSLSASVGDRVTITCRASQDISNYLNWYQQKPDGTVKLLIYYTAILHSGVPSRFSGSGSGTDYSLTISSLQPEDFATYFCQQGNTLPWTFGQGTKVEIK
notes: also called VH5 + VL5
- % Relative activity (WT antibody/test antibody) [2]: 84.4%
- % Relative activity (Test antibody/WT antibody) [3]: 96.4%
- % Relative activity (WT antibody/test antibody) [4]: 145%
- % Relative activity (WT antibody/test antibody) [5]: 90.4%

B7: 219-Hu4 (antibody, V domains shown)
VH: B3 VH with R38K, M48I, R67K, V68A, I70L, A72V
VL: B3 VL
notes: also called VH6 + VL5
- % Relative activity (WT antibody/test antibody) [2]: 99.7%
- % Relative activity (Test antibody/WT antibody) [3]: 95.6%
- % Relative activity (WT antibody/test antibody) [4]: 142%
- % Relative activity (WT antibody/test antibody) [5]: 93.1%

B8: 001-WT (antibody, V domains shown)
VH: EVQLQESGGGLVQPGGSLNLSCAASGFAFSTYDLSWVRQTPEKRLEWVAYINNGGISTYYSDTVKGRFTISRDNAKNTLYLQMSSLKSEDTAMYYCVRGPFYGSANYFDYWGQGTTVTVSS
VL: EIVMTQSPASLSLSVGETVTITCRTSESIYSNLPWYQQKQGKSPQLLVYDATKLAEGVPSRFSGSESGTQYSLKINSLQSEDFGTYYCQHFWVTPWTFGGGTKLEIK
notes: Human-murine chimeric wild-type molecule; also called human-murine chimeric antibody WT of #001
- % Relative activity (WT antibody/test antibody) [1]: 100%

The remaining lines, values ahead:

- % Relative activity (WT antibody/test antibody) [1]: 100%
B2: 219-WT (antibody, V domains shown)
VH: EVQLQESGAELVRPGASVKLSCKASGYSFTNYWMNWVKQRPGQGLEWIGMIHPSDTETRLNQNFKDKATLTVDKSSSTSYMQLSSPTSEDSAVYYCARGEGLGAARSVSMDYWGQGTTVTVSS
VL: B3 VL with Q3L, V15L, T22S, L46V, S77N, Q79E, P80Q, F83I, Q100G, V104L
notes: Human-murine chimeric wild-type molecule

- % Relative activity (WT antibody/test antibody) [2]: 83.1%
- % Relative activity (Test antibody/WT antibody) [3]: 110%
- % Relative activity (WT antibody/test antibody) [4]: 100%
- % Relative activity (WT antibody/test antibody) [5]: 77.5%
B4: 219-Hu1 (antibody, V domains shown)
VH: B3 VH with S16A, G44R, A72R, K74T, T76A
VL: B3 VL
notes: also called VH3 + VL5

- % Relative activity (WT antibody/test antibody) [2]: 95.9%
- % Relative activity (Test antibody/WT antibody) [3]: 103%
- % Relative activity (WT antibody/test antibody) [4]: 97.1%
- % Relative activity (WT antibody/test antibody) [5]: 102%
B5: 219-Hu2 (antibody, V domains shown)
VH: B3 VH with R67K, V68A
VL: B3 VL
notes: also called VH4 + VL5

- % Relative activity (WT antibody/test antibody) [2]: 96.5%
- % Relative activity (Test antibody/WT antibody) [3]: 93.3%
- % Relative activity (WT antibody/test antibody) [4]: 147%
- % Relative activity (WT antibody/test antibody) [5]: 93.4%
B6: 219-Hu5 (antibody, V domains shown)
VH: B3 VH with A72V
VL: B3 VL
notes: also called VH7 + VL5
